According to patent US20050191240A1 (BIOSYNTHEMA, published 2005):
Where two headings read alike, the source gives them in different places. *1 amine or outer side, *2 acyl side, *3 side chain or, on linkers, in order; H or OH if unused. [ ]: non-standard residue; d: D form. The star is where a group is joined. trans‑Cha(4-CH2NH2) = trans-(4-aminomethyl)cyclohexylalanine, O=C([C@H](C[C@H]1CC[C@H](CN[*:3])CC1)N[*:1])[*:2]; Gly(1-amidinopiperidin-4-yl) = N=C(N)N1CCC([C@H](N)C(=O)O)CC1; DTPA = O=C(O)CN(CCN(CC(=O)O)CC(=O)O)CCN(CC(=O)O)CC(=O)*; Phe(4-guanidino) = N=C(N)Nc1ccc(C[C@H](N)C(=O)O)cc1; homoAla(PipAm) = (N-amidinopiperidinyl)homoalanine; Ala(PipAm) = (N-amidinopiperidinyl)alanine; Dmt = Cc1cc(O)cc(C)c1C[C@H](N)C(=O)O; mTyr = N[C@@H](Cc1cccc(O)c1)C(=O)O; Ala(cPr) = N[C@@H](CC1CC1)C(=O)O; AzeCA = azetidinecarboxylic acid; tBuAla = CC(C)(C)C[C@H](N)C(=O)O; Cha = N[C@@H](CC1CCCCC1)C(=O)O; Chg = N[C@H](C(=O)O)C1CCCCC1; Tle = CC(C)(C)[C@H](N)C(=O)O; Aba(Apy) = not defined here; PipGly = piperidinylglycine; NHOH = ON*

Legend:
Experiment in all cases: competitive binding vs radioiodinated native neurotensin, human tumor sections
[1] = molecular target: neurotensin receptors (frozen tissue sections from receptor-positive human tumors) (human) (UniProt P30989)
[2] = molecular target: T1, neurotensin receptors (frozen tissue sections from receptor-positive human tumors) (human, UniProt P30989 1-418)
T1 construct: whole, on cells
Description: (§1) Frozen tissue sections from receptor-positive human tumors were used in a competitive binding assay.

[3] = molecular target: T1, neurotensin receptors (frozen tissue …); remark: listed apart in the source
Description: as §1

[4] = molecular target: T1, neurotensin receptors (frozen tissue …); remark: listed apart in the source
Description: as §1

neurotensin receptors (frozen tissue sections from receptor-positive human tumors) (human), sequence (P30989 whole entry): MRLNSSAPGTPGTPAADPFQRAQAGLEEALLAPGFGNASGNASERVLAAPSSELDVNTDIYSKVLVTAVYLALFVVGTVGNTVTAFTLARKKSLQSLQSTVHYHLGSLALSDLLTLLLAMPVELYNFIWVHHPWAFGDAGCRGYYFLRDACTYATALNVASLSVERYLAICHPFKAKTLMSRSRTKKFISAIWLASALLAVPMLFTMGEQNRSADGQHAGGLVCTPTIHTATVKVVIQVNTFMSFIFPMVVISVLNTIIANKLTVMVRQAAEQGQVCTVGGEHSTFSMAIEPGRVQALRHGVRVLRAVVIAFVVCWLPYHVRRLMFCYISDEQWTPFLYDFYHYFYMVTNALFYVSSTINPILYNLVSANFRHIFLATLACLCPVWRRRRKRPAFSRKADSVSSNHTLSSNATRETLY
T1 sequence (P30989 whole entry): as above

Molecule: DTPA-DLys-Pro-Aba(Apy)-Aba(Apy)-Pro-Tyr-Ile-Leu-OH (peptide)
- Kd [1]: > 10 µM

Molecule: {DTPA}-[dK]P[Gly(1-amidinopiperidin-4-yl)]RP[Dmt][Tle]L-OH [DTPA-DLys-Pro-Gly(PipAm)-Arg-Pro-(2,6-diMe)Tyr-tBuGly-Leu-OH]
- Kd [1]: 0.045 µM

Molecule: {DTPA}-[dK]P[Gly(1-amidinopiperidin-4-yl)]RP[mTyr][Tle]L-OH [DTPA-DLys-Pro-Gly(PipAm)-Arg-Pro-mTyr-tBuGly-Leu-OH]
- Kd [1]: 0.3 µM

Molecule: {DTPA}-[dK]P[Gly(1-amidinopiperidin-4-yl)][PipGly]PY[Tle]L-OH [DTPA-DLys-Pro-Gly(PipAm)-PipGly-Pro-Tyr-tBuGly-Leu-OH]
- Kd [1]: 0.14 µM

Molecule: {DTPA}-[dK]P[Gly(1-amidinopiperidin-4-yl)]R[AzeCA]Y[Tle]L-OH [DTPA-DLys-Pro-Gly(PipAm)-Arg-AzeCA-Tyr-tBuGly-Leu-OH]
- Kd [1]: 0.74 µM

Molecule: {DTPA}-[dK][AzeCA][Gly(1-amidinopiperidin-4-yl)]RPY[Tle]L-OH [DTPA-DLys-AzeCA-Gly(PipAm)-Arg-Pro-Tyr-tBuGly-Leu-OH]
- Kd [1]: 0.024 µM

B1: DTPA-DLys-Pro-Gly(PipAm)-Arg-Pro-Tyr-tBuGly-Cpa-OH (peptide)
peptide: {DTPA}-[dK]P[Gly(1-amidinopiperidin-4-yl)]RPY[Tle][Ala(cPr)]-OH
SMILES: CC(C)(C)[C@H](NC(=O)[C@H](Cc1ccc(O)cc1)NC(=O)[C@@H]1CCCN1C(=O)[C@H](CCCNC(=N)N)NC(=O)[C@@H](NC(=O)[C@@H]1CCCN1C(=O)[C@@H](CCCCN)NC(=O)CN(CCN(CCN(CC(=O)O)CC(=O)O)CC(=O)O)CC(=O)O)C1CCN(C(=N)N)CC1)C(=O)N[C@@H](CC1CC1)C(=O)O
- Kd [1]: 0.29 µM

B2: DTPA-DLys-Pro-Gly(PipAm)-Arg-Pro-Tyr-tBuGly-Cha-OH (peptide)
peptide: {DTPA}-[dK]P[Gly(1-amidinopiperidin-4-yl)]RPY[Tle][Cha]-OH
SMILES: CC(C)(C)[C@H](NC(=O)[C@H](Cc1ccc(O)cc1)NC(=O)[C@@H]1CCCN1C(=O)[C@H](CCCNC(=N)N)NC(=O)[C@@H](NC(=O)[C@@H]1CCCN1C(=O)[C@@H](CCCCN)NC(=O)CN(CCN(CCN(CC(=O)O)CC(=O)O)CC(=O)O)CC(=O)O)C1CCN(C(=N)N)CC1)C(=O)N[C@@H](CC1CCCCC1)C(=O)O
- Kd [1]: 0.012 µM

B3: DTPA-DLys-Pro-Gly(PipAm)-Arg-Pro-Tyr-tBuGly-tBuAla-OH (peptide)
peptide: {DTPA}-[dK]P[Gly(1-amidinopiperidin-4-yl)]RPY[Tle][tBuAla]-OH
SMILES: CC(C)(C)C[C@H](NC(=O)[C@@H](NC(=O)[C@H](Cc1ccc(O)cc1)NC(=O)[C@@H]1CCCN1C(=O)[C@H](CCCNC(=N)N)NC(=O)[C@@H](NC(=O)[C@@H]1CCCN1C(=O)[C@@H](CCCCN)NC(=O)CN(CCN(CCN(CC(=O)O)CC(=O)O)CC(=O)O)CC(=O)O)C1CCN(C(=N)N)CC1)C(C)(C)C)C(=O)O
- Kd [1]: 0.0073 µM

Molecule: {DTPA}-[PipGly]P[Gly(1-amidinopiperidin-4-yl)]RPY[Tle]L-OH [DTPA-PipGly-Pro-Gly(PipAm)-Arg-Pro-Tyr-tBuGly-Leu-OH]
- Kd [1]: 0.0039 µM

B4: DTPA-trans-Cha(4-CH2NH2)-Pro-Gly(PipAm)-Arg-Pro-Tyr-tBuGly-Leu-OH (peptide)
peptide: {DTPA}-[trans‑Cha(4-CH2NH2)]P[Gly(1-amidinopiperidin-4-yl)]RPY[Tle]L-OH
SMILES: CC(C)C[C@H](NC(=O)[C@@H](NC(=O)[C@H](Cc1ccc(O)cc1)NC(=O)[C@@H]1CCCN1C(=O)[C@H](CCCNC(=N)N)NC(=O)[C@@H](NC(=O)[C@@H]1CCCN1C(=O)[C@H](C[C@H]1CC[C@H](CN)CC1)NC(=O)CN(CCN(CCN(CC(=O)O)CC(=O)O)CC(=O)O)CC(=O)O)C1CCN(C(=N)N)CC1)C(C)(C)C)C(=O)O
- Kd [1]: 0.005 µM

B5: DTPA-DLys-Pro-(4-Gu)Phe-Arg-Pro-Tyr-Ile-Leu-OH (peptide)
peptide: KPXRPYIL
modifications: N-terminal DTPA; D-Lys at 1; (4-Gu)Phe [Phe(4-guanyl)] at 3 (X)
notes: also called Compound I; DTPA-DLys-Pro-Phe(4-guanyl)-Arg-Pro-Tyr-Ile-Leu-OH
- Kd [2]: 0.0086 µM
- Kd [3]: 0.0086 µM
- Kd [4]: 0.0086 µM

B6: DTPA-DLys-Pro-(4-Gu)Phe-(4-Gu)Phe-Pro-Tyr-Ile-Leu-OH (peptide)
peptide: {DTPA}-[dK]P[Phe(4-guanidino)][Phe(4-guanidino)]PYIL-OH
SMILES: CC[C@H](C)[C@H](NC(=O)[C@H](Cc1ccc(O)cc1)NC(=O)[C@@H]1CCCN1C(=O)[C@H](Cc1ccc(NC(=N)N)cc1)NC(=O)[C@H](Cc1ccc(NC(=N)N)cc1)NC(=O)[C@@H]1CCCN1C(=O)[C@@H](CCCCN)NC(=O)CN(CCN(CCN(CC(=O)O)CC(=O)O)CC(=O)O)CC(=O)O)C(=O)N[C@@H](CC(C)C)C(=O)O
notes: also called DTPA-DLys-Pro-Phe(4-guanyl)-Phe(4-guanyl)-Pro-Tyr-Ile-Leu-OH
- Kd [3]: 0.175 µM
- Kd [4]: 0.175 µM

Molecule: {DTPA}-[dK]PR[Aba(Apy)]PYIL-OH (reading uncertain) [DTPA-DLys-Pro-Arg-Aba(Apy)-Pro-Tyr-Ile-Leu-OH]
- Kd [3]: 1.2 µM
- Kd [4]: 1.2 µM

Molecule: {DTPA}-[dK]P[Aba(Apy)]RPYIL-OH (reading uncertain, also called Compound III) [DTPA-DLys-Pro-Aba(Apy)-Arg-Pro-Tyr-Ile-Leu-OH]
- Kd [2]: 0.068 µM
- Kd [3]: 0.068 µM
- Kd [4]: 0.068 µM

B7: DTPA-DLys-Pro-Gly(PipAm)-Arg-Pro-Tyr-Ile-Leu-OH (peptide)
peptide: KPXRPYIL
modifications: N-terminal DTPA; D-Lys at 1; Gly(PipAm) ((N-amidinopiperidinyl)glycine) at 3 (X)
notes: also called Compound II
- Kd [2]: 0.0027 µM
- Kd [3]: 0.0027 µM
- Kd [4]: 0.0027 µM

B8: DTPA-DLys-Pro-Arg-(4-Gu)Phe-Pro-Tyr-Ile-Leu-OH (peptide)
peptide: KPRXPYIL
modifications: N-terminal DTPA; D-Lys at 1; (4-Gu)Phe [Phe(4-guanyl)] at 4 (X)
notes: also called DTPA-DLys-Pro-Arg-Phe(4-guanyl)-Pro-Tyr-Ile-Leu-OH
- Kd [3]: 0.083 µM
- Kd [4]: 0.083 µM

B9: DTPA-DLys-Pro-(4-Gu)Phe-Arg-Pro-Tyr-tBuGly-Leu-OH (peptide)
peptide: {DTPA}-[dK]P[Phe(4-guanidino)]RPY[Tle]L-OH
notes: also called Compound IX; DTPA-DLys-Pro-Phe(4-guanyl)-Arg-Pro-Tyr-tBuGly-Leu-OH
- IC50 [3]: 0.0125 µM
- Kd [4]: 0.0125 µM

Molecule: {DTPA}-[dK]P[Gly(1-amidinopiperidin-4-yl)]RPY[Tle]L-OH (also called Compound X) [DTPA-DLys-Pro-Gly(PipAm)-Arg-Pro-Tyr-tBuGly-Leu-OH]
- IC50 [3]: 0.0035 µM
- Kd [4]: 0.0035 µM

Molecule: {DTPA}-[dK]P[Gly(1-amidinopiperidin-4-yl)]RPY[Chg]L-OH [DTPA-DLys-Pro-Gly(PipAm)-Arg-Pro-Tyr-Chg-Leu-OH]
- Kd [4]: 0.025 µM

Molecule: {DTPA}-[dK]P[Gly(1-amidinopiperidin-4-yl)]RP[dY][Tle]L-OH [DTPA-DLys-Pro-Gly(PipAm)-Arg-Pro-DTyr-tBuGly-Leu-OH]
- Kd [4]: 0.0064 µM

Molecule: {DTPA}-[dK]P[Ala(PipAm)]RPY[Tle]L-OH [DTPA-DLys-Pro-Ala(PipAm)-Arg-Pro-Tyr-tBuGly-Leu-OH]
- Kd [4]: 0.014 µM

Molecule: {DTPA}-[dK]P[homoAla(PipAm)]RPY[Tle]L-OH [DTPA-DLys-Pro-homoAla(PipAm)-Arg-Pro-Tyr-tBuGly-Leu-OH]
- Kd [4]: 0.014 µM

Molecule: {DTPA}-[dK]P[Gly(1-amidinopiperidin-4-yl)]RPY[Tle]L-{NHOH} [DTPA-DLys-Pro-Gly(PipAm)-Arg-Pro-Tyr-tBuGly-Leu-HA]
- Kd [4]: 0.049 µM

B10: DTPA-DTyr-Glu-Asn-Lys-Pro-Gly(PipAm)-Arg-Pro-Tyr-tBuGly-Leu-OH (peptide)
peptide: {DTPA}-[dY]ENKP[Gly(1-amidinopiperidin-4-yl)]RPY[Tle]L-OH
SMILES: CC(C)C[C@H](NC(=O)[C@@H](NC(=O)[C@H](Cc1ccc(O)cc1)NC(=O)[C@@H]1CCCN1C(=O)[C@H](CCCNC(=N)N)NC(=O)[C@@H](NC(=O)[C@@H]1CCCN1C(=O)[C@H](CCCCN)NC(=O)[C@H](CC(N)=O)NC(=O)[C@H](CCC(=O)O)NC(=O)[C@@H](Cc1ccc(O)cc1)NC(=O)CN(CCN(CCN(CC(=O)O)CC(=O)O)CC(=O)O)CC(=O)O)C1CCN(C(=N)N)CC1)C(C)(C)C)C(=O)O
notes: also called Compound XIII
- Kd [4]: 0.0045 µM

B11: DTPA-DTyr-Glu-Asn-Lys-Pro-Gly(PipAm)-Arg-Pro-Tyr-tBuGly-Cha-OH (peptide)
peptide: {DTPA}-[dY]ENKP[Gly(1-amidinopiperidin-4-yl)]RPY[Tle][Cha]-OH
SMILES: CC(C)(C)[C@H](NC(=O)[C@H](Cc1ccc(O)cc1)NC(=O)[C@@H]1CCCN1C(=O)[C@H](CCCNC(=N)N)NC(=O)[C@@H](NC(=O)[C@@H]1CCCN1C(=O)[C@H](CCCCN)NC(=O)[C@H](CC(N)=O)NC(=O)[C@H](CCC(=O)O)NC(=O)[C@@H](Cc1ccc(O)cc1)NC(=O)CN(CCN(CCN(CC(=O)O)CC(=O)O)CC(=O)O)CC(=O)O)C1CCN(C(=N)N)CC1)C(=O)N[C@@H](CC1CCCCC1)C(=O)O
notes: also called Compound XIV
- Kd [4]: 0.0045 µM

B12: DTPA-DTyr-Glu-Asn-Lys-Pro-Gly(PipAm)-Arg-Pro-Tyr-tBuGly-tBuAla-OH (peptide)
peptide: {DTPA}-[dY]ENKP[Gly(1-amidinopiperidin-4-yl)]RPY[Tle][tBuAla]-OH
SMILES: CC(C)(C)C[C@H](NC(=O)[C@@H](NC(=O)[C@H](Cc1ccc(O)cc1)NC(=O)[C@@H]1CCCN1C(=O)[C@H](CCCNC(=N)N)NC(=O)[C@@H](NC(=O)[C@@H]1CCCN1C(=O)[C@H](CCCCN)NC(=O)[C@H](CC(N)=O)NC(=O)[C@H](CCC(=O)O)NC(=O)[C@@H](Cc1ccc(O)cc1)NC(=O)CN(CCN(CCN(CC(=O)O)CC(=O)O)CC(=O)O)CC(=O)O)C1CCN(C(=N)N)CC1)C(C)(C)C)C(=O)O
notes: also called Compound XV
- Kd [4]: 0.0035 µM
